Target: MelA1 (Candidatus Melainabacteria bacterium isolate SJ512)
Experiment: SEC; size-exclusion chromatography of MelA1; column and buffer not told

stoichiometry N: 2
Substance: MelA1 (natural protein)

From doi:10.1101/2025.10.31.685832
